This note sets out measurements from doi:10.1101/2020.05.04.075580.

Data set [1] has as its target T1, importin alpha2_21-50 peptide (mouse, UniProt P52293). The data set can be described thus: NMR.
The target in data set [2] is T1, importin alpha2_21-50 peptide. Description: NMR. This is another data set of the same source.

Read-outs that look alike come from different tables or passages of the source.

B1: SOX-POU 15 bp (dsDNA)
DNA 1: GCAGATGCATAACCG
DNA 2: CGGTTATGCATCTGC
As for B1, the Kd in data set [1] was 0.3 µM; in data set [2], 600 µM.

By Kd is commonly meant the free concentration of one partner at which half of the binding sites on the other are occupied at equilibrium, for simple one-to-one binding.
